Experiment [1] concerns the target human kisspeptin receptor (KISS1R) (human), Q969F8. The experiment can be described thus: radioligand competition, hKISS1R membranes; legend: C is >100 nM.
Experiment [2] has the same target. The experiment in a line: radioligand competition, hKISS1R membranes; legend: B is 10-100 nM.
Experiment [3] addresses human kisspeptin receptor (KISS1R) (human) (UniProt Q969F8). The experiment can be described thus: radioligand competition, hKISS1R membranes; legend: A is <10 nM.

Numbered stars: 1 amine (or outer) side, 2 acyl side, 3 side chain; on linkers, the order of the positions; unused ones are H or OH. Square brackets hold non-standard residues; d marks the D form. Ends that are not written are not given here. * marks the point of attachment. X2 = 4‑amino‑1‑((3-fluoro-4-methylbenzyl)glycyl)piperidine‑4‑carboxylic acid, Cc1ccc(CN(CC(=O)N2CCC(N[*:1])(C(=O)[*:2])CC2)[*:3])cc1F; X7 = 4‑amino‑1‑(N-methylcarbamimidoyl)piperidine‑4‑carboxylic acid, CNC(=N)N1CCC(N[*:1])(C(=O)[*:2])CC1; Apc(4-OMe) = 4-aminopiperidine-4-carboxylic acid residue N1-acylated by a methoxy-bearing benzylglycyl; DOTA = O=C(O)CN1CCN(CC(=O)O)CCN(CC(=O)*)CCN(CC(=O)O)CC1; Butanoyl(4-(4-I-phenyl)) = O=C(CCCc1ccc(I)cc1)*; Api(1-amidino) = N=C(N)N1CCC(N)(C(=O)O)CC1; HO(CH2CH2O)2CH2CH2CO = O=C(CCOCCOCCO)*; Phe(3-F) = N[C@@H](Cc1cccc(F)c1)C(=O)O; Phe(4-I) = N[C@@H](Cc1ccc(I)cc1)C(=O)O; d2Nal = N[C@H](Cc1ccc2ccccc2c1)C(=O)O; 4Pal = N[C@@H](Cc1ccncc1)C(=O)O; d(β3hD) = NC(CC(=O)O)CC(=O)O; 4Amb = NCc1ccc(C(=O)O)cc1; Pip = O=C(O)[C@@H]1CCCCN1; Octanoyl = CCCCCCCC(=O)*; APM = not defined here; Ahx = NCCCCCC(=O)O; azaGly = NNC(=O)O; βAla = NCCC(=O)O; Sar = CNCC(=O)O

human kisspeptin receptor (KISS1R) (human), Q969F8, sequence (Q969F8 whole entry): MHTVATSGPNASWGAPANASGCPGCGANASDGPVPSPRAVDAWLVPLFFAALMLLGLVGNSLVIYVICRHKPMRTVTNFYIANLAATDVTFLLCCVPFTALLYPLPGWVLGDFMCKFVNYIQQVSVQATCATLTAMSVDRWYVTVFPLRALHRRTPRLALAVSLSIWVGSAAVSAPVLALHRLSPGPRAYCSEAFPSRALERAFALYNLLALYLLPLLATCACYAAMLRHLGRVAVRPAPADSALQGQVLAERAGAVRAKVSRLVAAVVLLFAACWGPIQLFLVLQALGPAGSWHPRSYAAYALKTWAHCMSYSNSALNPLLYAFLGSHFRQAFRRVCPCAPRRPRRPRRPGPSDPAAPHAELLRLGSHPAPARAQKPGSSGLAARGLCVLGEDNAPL
human kisspeptin receptor (KISS1R) (human), sequence (Q969F8 whole entry): as above

B1: Compound 199 (peptide)
peptide: {DOTA-Ahx}-TNRNFL[Api(1-amidino)]F-NH2
SMILES: CC(C)C[C@H](NC(=O)[C@H](Cc1ccccc1)NC(=O)[C@H](CC(N)=O)NC(=O)[C@H](CCCNC(=N)N)NC(=O)[C@H](CC(N)=O)NC(=O)[C@@H](NC(=O)CCCCCNC(=O)CN1CCN(CC(=O)O)CCN(CC(=O)O)CCN(CC(=O)O)CC1)[C@@H](C)O)C(=O)NC1(C(=O)N[C@@H](Cc2ccccc2)C(N)=O)CCN(C(=N)N)CC1
In turn, B1 came in with a Ki in experiment [1] above 100 nM.

On to {DOTA-trans‑4‑(aminomethyl)cyclohexane‑1‑carboxylic acid}-[D‑3‑aminopentanedioic acid]NT[Phe(3-F)][azaGly]L[X2][4Pal]-NH2 [Compound 231], for which the Ki in experiment [2] was 10 to 100 nM.

In turn, {DOTA-Ahx}-F[azaGly]L[4‑amino‑1‑(4-(p-tolyl)butanoyl)piperidine‑4‑carboxylic acid]W-NH2 [Compound 7] displayed a Ki in experiment [2] of 10 to 100 nM.

B2: Compound 260 (peptide)
peptide: {DOTA-4Amb}-F[azaGly][dL][X2]W-NH2
SMILES: Cc1ccc(CNCC(=O)N2CCC(NC(=O)[C@@H](CC(C)C)NC(=O)NNC(=O)[C@H](Cc3ccccc3)NC(=O)c3ccc(CNC(=O)CN4CCN(CC(=O)O)CCN(CC(=O)O)CCN(CC(=O)O)CC4)cc3)(C(=O)N[C@@H](Cc3c[nH]c4ccccc34)C(N)=O)CC2)cc1F
In the case of B2, the Ki in experiment [2] lay in the range of 10 to 100 nM.

{DOTA-Ahx}-[dY][d2Nal]NTF[azaGly]L[4‑amino‑1‑(octylglycyl)piperidine‑4‑carboxylic acid][dW]-NH2 [Compound 374]: the Ki in experiment [3] is below 10 nM.

B3: Compound 19 (peptide)
peptide: {DOTA}-[dK][dN]F[azaGly]L[X2]W-NH2
SMILES: Cc1ccc(CNCC(=O)N2CCC(NC(=O)[C@H](CC(C)C)NC(=O)NNC(=O)[C@H](Cc3ccccc3)NC(=O)[C@@H](CC(N)=O)NC(=O)[C@@H](CCCCN)NC(=O)CN3CCN(CC(=O)O)CCN(CC(=O)O)CCN(CC(=O)O)CC3)(C(=O)N[C@@H](Cc3c[nH]c4ccccc34)C(N)=O)CC2)cc1F
B3: in experiment [2], the Ki lay in the range of 10 to 100 nM.

B4: Compound 337 (peptide)
peptide: {DOTA-Ahx}-[dK](Butanoyl(4-(4-I-phenyl)))[Ahx][dY][d2Nal]NTF[azaGly]L[Api(1-amidino)]W-NH2
SMILES: CC(C)C[C@H](NC(=O)NNC(=O)[C@H](Cc1ccccc1)NC(=O)[C@@H](NC(=O)[C@H](CC(N)=O)NC(=O)[C@@H](Cc1ccc2ccccc2c1)NC(=O)[C@@H](Cc1ccc(O)cc1)NC(=O)CCCCCNC(=O)[C@@H](CCCCNC(=O)CCCc1ccc(I)cc1)NC(=O)CCCCCNC(=O)CN1CCN(CC(=O)O)CCN(CC(=O)O)CCN(CC(=O)O)CC1)[C@@H](C)O)C(=O)NC1(C(=O)N[C@@H](Cc2c[nH]c3ccccc23)C(N)=O)CCN(C(=N)N)CC1
B4: the Ki in experiment [3] is below 10 nM.

In experiment [1], ENTF[azaGly][dL][Apc(4-OMe)]F [Compound 239] gave a Ki above 100 nM.

B5: Compound 189 (peptide)
peptide: {DOTA-Ahx}-F[azaGly]L[X7]W-NH2
SMILES: CNC(=N)N1CCC(NC(=O)[C@H](CC(C)C)NC(=O)NNC(=O)[C@H](Cc2ccccc2)NC(=O)CCCCCNC(=O)CN2CCN(CC(=O)O)CCN(CC(=O)O)CCN(CC(=O)O)CC2)(C(=O)N[C@@H](Cc2c[nH]c3ccccc23)C(N)=O)CC1
Take B5: the Ki in experiment [1] was above 100 nM.

B6: Compound 12 (peptide)
peptide: {DOTA-Ahx}-F[Sar]L[X2]W-NH2
SMILES: Cc1ccc(CNCC(=O)N2CCC(NC(=O)[C@H](CC(C)C)NC(=O)CN(C)C(=O)[C@H](Cc3ccccc3)NC(=O)CCCCCNC(=O)CN3CCN(CC(=O)O)CCN(CC(=O)O)CCN(CC(=O)O)CC3)(C(=O)N[C@@H](Cc3c[nH]c4ccccc34)C(N)=O)CC2)cc1F
In experiment [2], B6 registered a Ki of 10 to 100 nM.

B7: Compound 121 (peptide)
peptide: {DOTA}-[dY][Phe(4-I)]NT[Phe(4-I)][azaGly]L[Api(1-amidino)][4Pal]-NH2
SMILES: CC(C)C[C@H](NC(=O)NNC(=O)[C@H](Cc1ccc(I)cc1)NC(=O)[C@@H](NC(=O)[C@H](CC(N)=O)NC(=O)[C@H](Cc1ccc(I)cc1)NC(=O)[C@@H](Cc1ccc(O)cc1)NC(=O)CN1CCN(CC(=O)O)CCN(CC(=O)O)CCN(CC(=O)O)CC1)[C@@H](C)O)C(=O)NC1(C(=O)N[C@@H](Cc2ccncc2)C(N)=O)CCN(C(=N)N)CC1
B7 registered a Ki in experiment [2] of 10 to 100 nM.

B8: Compound 226 (peptide)
peptide: Octanoyl-K(DOTA)NTF[azaGly]L[Api(1-amidino)][4Pal]-NH2
SMILES: CCCCCCCC(=O)N[C@@H](CCCCNC(=O)CN1CCN(CC(=O)O)CCN(CC(=O)O)CCN(CC(=O)O)CC1)C(=O)N[C@@H](CC(N)=O)C(=O)N[C@H](C(=O)N[C@@H](Cc1ccccc1)C(=O)NNC(=O)N[C@@H](CC(C)C)C(=O)NC1(C(=O)N[C@@H](Cc2ccncc2)C(N)=O)CCN(C(=N)N)CC1)[C@@H](C)O
B8: the Ki in experiment [2] lay within 10 to 100 nM.

As to {DOTA-Ahx}-[dY][d2Nal]NTF[azaGly]L[Pip][dW]-NH2 [Compound 339], in experiment [3], the Ki was below 10 nM.

B9: Compound 171 (peptide)
peptide: {DOTA}-ENT[Phe(3-F)][azaGly]L[X2][4Pal]-NH2
SMILES: Cc1ccc(CNCC(=O)N2CCC(NC(=O)[C@H](CC(C)C)NC(=O)NNC(=O)[C@H](Cc3cccc(F)c3)NC(=O)[C@@H](NC(=O)[C@H](CC(N)=O)NC(=O)[C@H](CCC(=O)O)NC(=O)CN3CCN(CC(=O)O)CCN(CC(=O)O)CCN(CC(=O)O)CC3)[C@@H](C)O)(C(=O)N[C@@H](Cc3ccncc3)C(N)=O)CC2)cc1F
B9: in experiment [2], the Ki was 10 to 100 nM.

With {DOTA-Ahx}-[dY][d2Nal]NTF[azaGly]L[4‑amino‑1‑((4-iodobenzyl)glycyl)piperidine‑4‑carboxylic acid][dW]-NH2 [Compound 371], the Ki in experiment [3] was below 10 nM.

B10: Compound 18 (peptide)
peptide: {DOTA}-[dN][dN]F[azaGly]L[X2]W-NH2
SMILES: Cc1ccc(CNCC(=O)N2CCC(NC(=O)[C@H](CC(C)C)NC(=O)NNC(=O)[C@H](Cc3ccccc3)NC(=O)[C@@H](CC(N)=O)NC(=O)[C@@H](CC(N)=O)NC(=O)CN3CCN(CC(=O)O)CCN(CC(=O)O)CCN(CC(=O)O)CC3)(C(=O)N[C@@H](Cc3c[nH]c4ccccc34)C(N)=O)CC2)cc1F
In experiment [2], B10 displayed a Ki of 10 to 100 nM.

For the molecule {DOTA-APM}-F[azaGly]L[X2]H-NH2 (reading uncertain) [Compound 248], in experiment [1], the Ki was above 100 nM.

Consider {DOTA}-[d(β3hD)]NT[Phe(3-F)][azaGly]L[X2][4Pal]-NH2 [Compound 230], for which the Ki in experiment [2] lay in the range of 10 to 100 nM.

B11: Compound 5 (peptide)
peptide: {DOTA-Ahx}-F[azaGly]L[Api(1-amidino)]W-NH2
SMILES: CC(C)C[C@H](NC(=O)NNC(=O)[C@H](Cc1ccccc1)NC(=O)CCCCCNC(=O)CN1CCN(CC(=O)O)CCN(CC(=O)O)CCN(CC(=O)O)CC1)C(=O)NC1(C(=O)N[C@@H](Cc2c[nH]c3ccccc23)C(N)=O)CCN(C(=N)N)CC1
For the molecule B11, the Ki in experiment [2] is 10 to 100 nM.

B12: Compound 13 (peptide)
peptide: {DOTA-Ahx}-[dA][dA][dA][dA][dA]F[azaGly]L[X2]W-NH2
SMILES: Cc1ccc(CNCC(=O)N2CCC(NC(=O)[C@H](CC(C)C)NC(=O)NNC(=O)[C@H](Cc3ccccc3)NC(=O)[C@@H](C)NC(=O)[C@@H](C)NC(=O)[C@@H](C)NC(=O)[C@@H](C)NC(=O)[C@@H](C)NC(=O)CCCCCNC(=O)CN3CCN(CC(=O)O)CCN(CC(=O)O)CCN(CC(=O)O)CC3)(C(=O)N[C@@H](Cc3c[nH]c4ccccc34)C(N)=O)CC2)cc1F
As for B12, in experiment [2], the Ki fell in the range of 10 to 100 nM.

B13: Compound 21 (peptide)
peptide: {DOTA}-[dN]F[azaGly]L[X2]W-NH2
SMILES: Cc1ccc(CNCC(=O)N2CCC(NC(=O)[C@H](CC(C)C)NC(=O)NNC(=O)[C@H](Cc3ccccc3)NC(=O)[C@@H](CC(N)=O)NC(=O)CN3CCN(CC(=O)O)CCN(CC(=O)O)CCN(CC(=O)O)CC3)(C(=O)N[C@@H](Cc3c[nH]c4ccccc34)C(N)=O)CC2)cc1F
For B13, in experiment [2], the Ki lay within 10 to 100 nM.

B14: Compound 14 (peptide)
peptide: {DOTA}-[βAla][dN][dN][dN][dN][dN]F[azaGly]L[X2]W-NH2
SMILES: Cc1ccc(CNCC(=O)N2CCC(NC(=O)[C@H](CC(C)C)NC(=O)NNC(=O)[C@H](Cc3ccccc3)NC(=O)[C@@H](CC(N)=O)NC(=O)[C@@H](CC(N)=O)NC(=O)[C@@H](CC(N)=O)NC(=O)[C@@H](CC(N)=O)NC(=O)[C@@H](CC(N)=O)NC(=O)CCNC(=O)CN3CCN(CC(=O)O)CCN(CC(=O)O)CCN(CC(=O)O)CC3)(C(=O)N[C@@H](Cc3c[nH]c4ccccc34)C(N)=O)CC2)cc1F
In experiment [2], B14 came in with a Ki of 10 to 100 nM.

B15: Compound 251 (peptide)
peptide: {HO(CH2CH2O)2CH2CH2CO}-K(DOTA)TF[azaGly]L[X2][4Pal]-NH2
SMILES: Cc1ccc(CNCC(=O)N2CCC(NC(=O)[C@H](CC(C)C)NC(=O)NNC(=O)[C@H](Cc3ccccc3)NC(=O)[C@@H](NC(=O)[C@H](CCCCNC(=O)CN3CCN(CC(=O)O)CCN(CC(=O)O)CCN(CC(=O)O)CC3)NC(=O)CCOCCOCCO)[C@@H](C)O)(C(=O)N[C@@H](Cc3ccncc3)C(N)=O)CC2)cc1F
In experiment [1], B15 had a Ki above 100 nM.
